Data: US12703930B2, “Systems and methods for identification of MHC-I peptide epitopes” (THE REGENTS OF THE UNIVERSITY OF CALIFORNIA, priority 2020, dated 2026)
“Also recorded” adds a separate entry of the source.

Legend:
[1] = molecular target: T1, TAPBPR/HLA-A02 complexes (Homo sapiens, UniProt P04439); assay: native gel electrophoresis: release of HLA-A02 from tetramerized TAPBPR/HLA-A02 complexes by peptide; type: binding; conditions: biotinylated TAPBPR/HLA-A02 tetramerized with Streptavidin-PE; TAX 25, 125 or 2500 pmol; P18-I10 2500 pmol; 12% acrylamide gel
T1 construct: Plasmid DNA encoding the luminal domain of class I MHC (MHC-I) heavy chains H2-D^d, HLA-A*02:01; made in house
Text: The peptide receptive MHC-I complexes were isolated by gel filtration and tetramerized with Streptavidin-PE.

[2] = system: murine cells expressing the B4.3.2 TCR, DMF5 human T cells expressing the MART-1 TCR, NY-ESO-1 human T cells expressing the NY-ESO-1 TCR; assay: flow cytometry staining of TCR-expressing cells with pMHC-I tetramers; type: cell-based; conditions: TAPBPR at up to 1:100 molar ratio with MHC-I
Method: Flow cytometry was performed using commercially available tetramers prepared by currently available methods (“conventional”), as well as by the disclosed methods involving TAPBPR peptide exchange using a stoichiometric amount of TAPBPR (“exchanged stoichiometric”), a catalytic amount of TAPBPR (1:100 TAPBPR: MHC-I) (“exchanged catalytic”) or a mismatched peptide. […]. Tetramers prepared by the disclosed methods performed similarly to tetramers commercially produced using conventional methods.
FIG. 7C illustrates a titration of P18410/H-2D^d binding to B.4.2.3 cells (top), HLA-A*2:01/MART-1 binding to DMF5 cells (middle) and HLA-A*2:01/NY-ESO-1 peptide binding to NY-ESO-1 cells (bottom). The binding compares commercially available pMHC-I tetramers prepared using conventional methods (refolded) with pMHC-I tetramers prepared using the disclosed methods. […]. Data shown is representative of triplicate assays and error-bars are standard deviation from the mean.
Tetramer formation The procedure for production of peptide loaded tetramers using TAPBPR mediated exchange is described in See, e.g., Overall et al., “High Throughput pMHC-I Tetramer Library Production Using Chaperone Mediated Peptide Exchange,” bioRxiv, doi:10.1101/653477 (2019), which is hereby incorporated by reference in its entirety herein. […]

[3] = molecular target: goldilocks/HLA-A*02:01 (Homo sapiens, UniProt P04439); assay: native gel electrophoresis assay of TAPBPR-mediated peptide exchange on p*MHC-I; conditions: overnight incubation, excess peptide of interest, TAPBPR:MHC molar ratio 1:1 down to 1:1000

Substance	release of HLA-A02 proteins from the TAPBPR/HLA-A02 complexes (native gel) [1]	peptide exchange catalysed by TAPBPR (FIGS. 7A-7C) [2]	peptide exchange on goldilocks/HLA-A*02:01 (formation of pMHC species) [3]
RGPGRAFVTI [P18-I10]	showed no HLA-A02 proteins		
TAPBPR: molecular chaperone; recombinant luminal domain expressed in Drosophila S2 cells		catalyzes efficient peptide exchange when present at up to 1:100 molar ratio with MHC-I	complete peptide exchange; also recorded: catalyzes efficient peptide exchange when present at up to 1:1000 molar ratio with MHC-I
